Laboratory results from patent US20260167699A1 (Chugai, published 2026).

B1: GpH7-A5/GpH7-B3 variant I336_11K/GpL16-k0 (antibody, human IgG1, kappa)
heavy 1: not shown
heavy 2: not shown
light: DIVMTQSPLSLPVTPGEPASISCQASESLVHSNRNTYLHWYLQKPGQSPQLLIYKVSNRFSGVPDRFSGSGSGTDFTLKISRVEAEDVGVYYCSQNTHVPPTFGQGTKVEIERTVAAPSVFIFPPSDEQLKSGTASVVCLLNNFYPREAKVQWKVDNALQSGNSQESVTEQDSKDSTYSLSSTLTLSKADYEKHKVYACEVTHQGLSSPVTKSFNRGEC
notes: copies: 1 + 1 + 2
B2: GpH7-A5/GpH7-B3 variant K326_04F/GpL16-k0 (antibody, human IgG1, kappa)
heavy 1: not shown
heavy 2: not shown
light: B1 light
notes: copies: 1 + 1 + 2
B3: GpH7-A5/GpH7-B3 variant K334_12R/GpL16-k0 (antibody, human IgG1, kappa)
heavy 1: not shown
heavy 2: not shown
light: B1 light
notes: copies: 1 + 1 + 2
B4: GpH7-A5/GpH7-B3 variant K326_09D/GpL16-k0 (antibody, human IgG1, kappa)
heavy 1: not shown
heavy 2: not shown
light: B1 light
notes: copies: 1 + 1 + 2
B5: GpH7-A5/GpH7-B3 variant K334_07I/GpL16-k0 (antibody, human IgG1, kappa)
heavy 1: not shown
heavy 2: not shown
light: B1 light
notes: copies: 1 + 1 + 2
B6: GpH7-A5/GpH7-B3 variant K334_03V/GpL16-k0 (antibody, human IgG1, kappa)
heavy 1: not shown
heavy 2: not shown
light: B1 light
notes: copies: 1 + 1 + 2
B7: GpH7-A5/GpH7-B3 variant K326_10E/GpL16-k0 (antibody, human IgG1, kappa)
heavy 1: not shown
heavy 2: not shown
light: B1 light
notes: copies: 1 + 1 + 2
B8: GpH7-A5/GpH7-B3 variant I336_13S/GpL16-k0 (antibody, human IgG1, kappa)
heavy 1: not shown
heavy 2: not shown
light: B1 light
notes: copies: 1 + 1 + 2
B9: GpH7-A5/GpH7-B3 variant K326_13S/GpL16-k0 (antibody, human IgG1, kappa)
heavy 1: not shown
heavy 2: not shown
light: B1 light
notes: copies: 1 + 1 + 2
B10: GpH7-A5/GpH7-B3 variant K326_03V/GpL16-k0 (antibody, human IgG1, kappa)
heavy 1: not shown
heavy 2: not shown
light: B1 light
notes: copies: 1 + 1 + 2
B11: GpH7-A5/GpH7-B3 variant K334_15Y/GpL16-k0 (antibody, human IgG1, kappa)
heavy 1: not shown
heavy 2: not shown
light: B1 light
notes: copies: 1 + 1 + 2
B12: GpH7-A5/GpH7-B3 variant I336_15Y/GpL16-k0 (antibody, human IgG1, kappa)
heavy 1: not shown
heavy 2: not shown
light: B1 light
notes: copies: 1 + 1 + 2
B13: GpH7-A5/GpH7-B3 variant K334_05P/GpL16-k0 (antibody, human IgG1, kappa)
heavy 1: not shown
heavy 2: not shown
light: B1 light
notes: copies: 1 + 1 + 2
B14: GpH7-A5/GpH7-B3 variant K326_01G/GpL16-k0 (antibody, human IgG1, kappa)
heavy 1: not shown
heavy 2: not shown
light: B1 light
notes: copies: 1 + 1 + 2
B15: GpH7-A5/GpH7-B3 variant I336_14T/GpL16-k0 (antibody, human IgG1, kappa)
heavy 1: not shown
heavy 2: not shown
light: B1 light
notes: copies: 1 + 1 + 2
B16: GpH7-A5/GpH7-B3 variant K334_06M/GpL16-k0 (antibody, human IgG1, kappa)
heavy 1: not shown
heavy 2: not shown
light: B1 light
notes: copies: 1 + 1 + 2
B17: GpH7-A5/GpH7-B3 variant K326_02A/GpL16-k0 (antibody, human IgG1, kappa)
heavy 1: not shown
heavy 2: not shown
light: B1 light
notes: copies: 1 + 1 + 2
B18: GpH7-A5/GpH7-B3 variant K334_20W/GpL16-k0 (antibody, human IgG1, kappa)
heavy 1: not shown
heavy 2: not shown
light: B1 light
notes: copies: 1 + 1 + 2
B19: GpH7-A5/GpH7-B3 variant K334_16H/GpL16-k0 (antibody, human IgG1, kappa)
heavy 1: not shown
heavy 2: not shown
light: B1 light
notes: copies: 1 + 1 + 2
B20: GpH7-A5/GpH7-B3 variant K334_02A/GpL16-k0 (antibody, human IgG1, kappa)
heavy 1: not shown
heavy 2: not shown
light: B1 light
notes: copies: 1 + 1 + 2
B21: GpH7-A5/GpH7-B3 variant I336_16H/GpL16-k0 (antibody, human IgG1, kappa)
heavy 1: not shown
heavy 2: not shown
light: B1 light
notes: copies: 1 + 1 + 2
B22: GpH7-A5/GpH7-B3 variant K326_20W/GpL16-k0 (antibody, human IgG1, kappa)
heavy 1: not shown
heavy 2: not shown
light: B1 light
notes: copies: 1 + 1 + 2
B23: GpH7-A5/GpH7-B3 variant K326_08L/GpL16-k0 (antibody, human IgG1, kappa)
heavy 1: not shown
heavy 2: not shown
light: B1 light
notes: copies: 1 + 1 + 2
B24: GpH7-A5/GpH7-B3 variant K326_12R/GpL16-k0 (antibody, human IgG1, kappa)
heavy 1: not shown
heavy 2: not shown
light: B1 light
notes: copies: 1 + 1 + 2
B25: GpH7-A5/GpH7-B3 variant K334_19Q/GpL16-k0 (antibody, human IgG1, kappa)
heavy 1: not shown
heavy 2: not shown
light: B1 light
notes: copies: 1 + 1 + 2
B26: GpH7-A5/GpH7-B3 variant K334_18N/GpL16-k0 (antibody, human IgG1, kappa)
heavy 1: not shown
heavy 2: not shown
light: B1 light
notes: copies: 1 + 1 + 2
B27: GpH7-A5/GpH7-B3 variant K334_08L/GpL16-k0 (antibody, human IgG1, kappa)
heavy 1: not shown
heavy 2: not shown
light: B1 light
notes: copies: 1 + 1 + 2
B28: GpH7-A5/GpH7-B3 variant K334_01G/GpL16-k0 (antibody, human IgG1, kappa)
heavy 1: not shown
heavy 2: not shown
light: B1 light
notes: copies: 1 + 1 + 2
B29: GpH7-A5/GpH7-B3 variant I336_12R/GpL16-k0 (antibody, human IgG1, kappa)
heavy 1: not shown
heavy 2: not shown
light: B1 light
notes: copies: 1 + 1 + 2
B30: GpH7-A5/GpH7-B3 variant I336_19Q/GpL16-k0 (antibody, human IgG1, kappa)
heavy 1: not shown
heavy 2: not shown
light: B1 light
notes: copies: 1 + 1 + 2
B31: GpH7-A5/GpH7-B3 variant K326_07I/GpL16-k0 (antibody, human IgG1, kappa)
heavy 1: not shown
heavy 2: not shown
light: B1 light
notes: copies: 1 + 1 + 2
B32: GpH7-A5/GpH7-B3 variant K334_10E/GpL16-k0 (antibody, human IgG1, kappa)
heavy 1: not shown
heavy 2: not shown
light: B1 light
notes: copies: 1 + 1 + 2
B33: GpH7-A5/GpH7-B3 variant K326_14T/GpL16-k0 (antibody, human IgG1, kappa)
heavy 1: not shown
heavy 2: not shown
light: B1 light
notes: copies: 1 + 1 + 2
B34: GpH7-A5/GpH7-B3 variant I336_18N/GpL16-k0 (antibody, human IgG1, kappa)
heavy 1: not shown
heavy 2: not shown
light: B1 light
notes: copies: 1 + 1 + 2
B35: GpH7-A5/GpH7-B3 variant K326_15Y/GpL16-k0 (antibody, human IgG1, kappa)
heavy 1: not shown
heavy 2: not shown
light: B1 light
notes: copies: 1 + 1 + 2
B36: GpH7-A5/GpH7-B3 variant K326_19Q/GpL16-k0 (antibody, human IgG1, kappa)
heavy 1: not shown
heavy 2: not shown
light: B1 light
notes: copies: 1 + 1 + 2
B37: GpH7-A5/GpH7-B3 variant K326_16H/GpL16-k0 (antibody, human IgG1, kappa)
heavy 1: not shown
heavy 2: not shown
light: B1 light
notes: copies: 1 + 1 + 2
B38: GpH7-A5/GpH7-B3 variant K334_04F/GpL16-k0 (antibody, human IgG1, kappa)
heavy 1: not shown
heavy 2: not shown
light: B1 light
notes: copies: 1 + 1 + 2
B39: GpH7-A5/GpH7-B3 variant K334_14T/GpL16-k0 (antibody, human IgG1, kappa)
heavy 1: not shown
heavy 2: not shown
light: B1 light
notes: copies: 1 + 1 + 2
B40: GpH7-A5/GpH7-B3 variant K326_05P/GpL16-k0 (antibody, human IgG1, kappa)
heavy 1: not shown
heavy 2: not shown
light: B1 light
notes: copies: 1 + 1 + 2
B41: GpH7-A5/GpH7-B3 variant K326_06M/GpL16-k0 (antibody, human IgG1, kappa)
heavy 1: not shown
heavy 2: not shown
light: B1 light
notes: copies: 1 + 1 + 2
B42: GpH7-A5/GpH7-B3 variant K334_09D/GpL16-k0 (antibody, human IgG1, kappa)
heavy 1: not shown
heavy 2: not shown
light: B1 light
notes: copies: 1 + 1 + 2
B43: GpH7-A5/GpH7-B3 variant K334_13S/GpL16-k0 (antibody, human IgG1, kappa)
heavy 1: not shown
heavy 2: not shown
light: B1 light
notes: copies: 1 + 1 + 2
B44: GpH7-A5/GpH7-B3 variant K326_18N/GpL16-k0 (antibody, human IgG1, kappa)
heavy 1: not shown
heavy 2: not shown
light: B1 light
notes: copies: 1 + 1 + 2

These binders were tested against T1, FcγRIIIa (human, UniProt P08637 17-208) (assay: SPR (Biacore);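 note: antibody variants captured on an SPR sensor chip, with FcγRIIIa passed over as analyte in HBS-EP+ buffer at 25 °C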).
T1 construct: extracellular domain; also called 3a; FcγRIIIa extracellular domain
T1 sequence (P08637 other isoform, or with tags, fused parts or gaps): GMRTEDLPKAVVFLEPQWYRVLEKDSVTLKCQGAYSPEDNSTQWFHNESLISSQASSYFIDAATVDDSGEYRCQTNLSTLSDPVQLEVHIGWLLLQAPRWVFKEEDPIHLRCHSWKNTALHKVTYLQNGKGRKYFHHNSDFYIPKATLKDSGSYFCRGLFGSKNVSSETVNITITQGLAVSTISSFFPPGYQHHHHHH

Binder | He/Con 3a
B1 | 94.4 % of GpH7-A5/GpH7-B3/GpL16-k0
B2 | 114 % of GpH7-A5/GpH7-B3/GpL16-k0
B3 | 93.5 % of GpH7-A5/GpH7-B3/GpL16-k0
B4 | 148 % of GpH7-A5/GpH7-B3/GpL16-k0
B5 | 156 % of GpH7-A5/GpH7-B3/GpL16-k0
B6 | 154 % of GpH7-A5/GpH7-B3/GpL16-k0
B7 | 138 % of GpH7-A5/GpH7-B3/GpL16-k0
B8 | 97.1 % of GpH7-A5/GpH7-B3/GpL16-k0
B9 | 118 % of GpH7-A5/GpH7-B3/GpL16-k0
B10 | 135 % of GpH7-A5/GpH7-B3/GpL16-k0
B11 | 145 % of GpH7-A5/GpH7-B3/GpL16-k0
B12 | 83.4 % of GpH7-A5/GpH7-B3/GpL16-k0
B13 | 138 % of GpH7-A5/GpH7-B3/GpL16-k0
B14 | 114 % of GpH7-A5/GpH7-B3/GpL16-k0
B15 | 103 % of GpH7-A5/GpH7-B3/GpL16-k0
B16 | 149 % of GpH7-A5/GpH7-B3/GpL16-k0
B17 | 130 % of GpH7-A5/GpH7-B3/GpL16-k0
B18 | 132 % of GpH7-A5/GpH7-B3/GpL16-k0
B19 | 138 % of GpH7-A5/GpH7-B3/GpL16-k0
B20 | 152 % of GpH7-A5/GpH7-B3/GpL16-k0
B21 | 92.8 % of GpH7-A5/GpH7-B3/GpL16-k0
B22 | 93.7 % of GpH7-A5/GpH7-B3/GpL16-k0

Binder | He/Con 3a
B23 | 126 % of GpH7-A5/GpH7-B3/GpL16-k0
B24 | 101 % of GpH7-A5/GpH7-B3/GpL16-k0
B25 | 140 % of GpH7-A5/GpH7-B3/GpL16-k0
B26 | 140 % of GpH7-A5/GpH7-B3/GpL16-k0
B27 | 148 % of GpH7-A5/GpH7-B3/GpL16-k0
B28 | 125 % of GpH7-A5/GpH7-B3/GpL16-k0
B29 | 88.8 % of GpH7-A5/GpH7-B3/GpL16-k0
B30 | 88.4 % of GpH7-A5/GpH7-B3/GpL16-k0
B31 | 153 % of GpH7-A5/GpH7-B3/GpL16-k0
B32 | 186 % of GpH7-A5/GpH7-B3/GpL16-k0
B33 | 140 % of GpH7-A5/GpH7-B3/GpL16-k0
B34 | 99.4 % of GpH7-A5/GpH7-B3/GpL16-k0
B35 | 124 % of GpH7-A5/GpH7-B3/GpL16-k0
B36 | 117 % of GpH7-A5/GpH7-B3/GpL16-k0
B37 | 106 % of GpH7-A5/GpH7-B3/GpL16-k0
B38 | 152 % of GpH7-A5/GpH7-B3/GpL16-k0
B39 | 146 % of GpH7-A5/GpH7-B3/GpL16-k0
B40 | 117 % of GpH7-A5/GpH7-B3/GpL16-k0
B41 | 127 % of GpH7-A5/GpH7-B3/GpL16-k0
B42 | 164 % of GpH7-A5/GpH7-B3/GpL16-k0
B43 | 150 % of GpH7-A5/GpH7-B3/GpL16-k0
B44 | 134 % of GpH7-A5/GpH7-B3/GpL16-k0
